{"source": "the RNAGym collection of RNA variant scans (doi:10.1021/acssynbio.7b00057)", "parents": {"B1": {"name": "Pistol ribozyme (parent)", "chain": "GGGUCGUUGUUCCAUAAUCGCGUGGAUAUGGCACGCAAGUUUCUACCGGGCACCGUAAAUGUCCGACUGGAGCCGUUCGGGCGGCUAUAAACAGACCUCAGGCCCGAAGCGUGGCGGCACCUGCCGCCGGUGGUAAAAAAGAUCGGAAGAGCACACGUCU"}}, "data": [{"variants_of": "B1", "assay": "aptazyme ON/OFF ratio, guanine; higher = stronger switching; co-transcriptional cleavage with and without guanine", "values": [{"variant": "U8A U10C U11G C12G C13G", "aptazyme ON/OFF ratio": 1.26}, {"variant": "U8A U10C U11G C12G C13U", "aptazyme ON/OFF ratio": 1.14}, {"variant": "U8A U10C U11G C12G C13A", "aptazyme ON/OFF ratio": 1.29}, {"variant": "U8C C12U C13A", "aptazyme ON/OFF ratio": 1.26}, {"variant": "U8C C12U C13U", "aptazyme ON/OFF ratio": 1.28}, {"variant": "U8C C12U C13G", "aptazyme ON/OFF ratio": 1.39}, {"variant": "U8C G9A U10C U11G C13A", "aptazyme ON/OFF ratio": 1.2}, {"variant": "U8C G9A U10C U11G C13G", "aptazyme ON/OFF ratio": 1.44}, {"variant": "U8C G9A U10C U11G C13U", "aptazyme ON/OFF ratio": 1.35}, {"variant": "U8A U10G U11C C12G", "aptazyme ON/OFF ratio": 1.53}, {"variant": "U8A U10G U11C C12U", "aptazyme ON/OFF ratio": 1.04}, {"variant": "U8A U10G U11C C12A", "aptazyme ON/OFF ratio": 1.49}, {"variant": "U8C G9A U10C U11C C13A", "aptazyme ON/OFF ratio": 1.01}, {"variant": "U8C G9A U10C U11C C13G", "aptazyme ON/OFF ratio": 1.02}, {"variant": "U8C G9A U10C U11C C13U", "aptazyme ON/OFF ratio": 1.01}, {"variant": "U8A U11G C12G", "aptazyme ON/OFF ratio": 1.18}, {"variant": "U8A U11G C12U", "aptazyme ON/OFF ratio": 1.28}, {"variant": "U8A U11G C12A", "aptazyme ON/OFF ratio": 1.09}, {"variant": "U8C G9A U10A U11A C12A C13G", "aptazyme ON/OFF ratio": 1.15}, {"variant": "U8C G9A U10A U11A C12A C13A", "aptazyme ON/OFF ratio": 1.15}, {"variant": "U8C G9A U10A U11A C12A C13U", "aptazyme ON/OFF ratio": 1.3}, {"variant": "U8C G9A U10A U11C C13G", "aptazyme ON/OFF ratio": 1.04}, {"variant": "U8C G9A U10A U11C C13A", "aptazyme ON/OFF ratio": 1.05}, {"variant": "U8C G9A U10A U11C C13U", "aptazyme ON/OFF ratio": 1.06}, {"variant": "U8A U11G C12A C13A", "aptazyme ON/OFF ratio": 1.15}, {"variant": "U8A U11G C12A C13U", "aptazyme ON/OFF ratio": 1.2}, {"variant": "U8A U11G C12A C13G", "aptazyme ON/OFF ratio": 1.17}, {"variant": "U8C G9A U10A C12A", "aptazyme ON/OFF ratio": 1.22}, {"variant": "U8C G9A U10A C12G", "aptazyme ON/OFF ratio": 1.29}, {"variant": "U8C G9A U10A C12U", "aptazyme ON/OFF ratio": 1.31}, {"variant": "U8C G9A U10C C12A C13U", "aptazyme ON/OFF ratio": 1.33}, {"variant": "U8C G9A U10C C12A C13A", "aptazyme ON/OFF ratio": 1.27}, {"variant": "U8C G9A U10C C12A C13G", "aptazyme ON/OFF ratio": 1.18}, {"variant": "U8C G9A U10A U11A C13G", "aptazyme ON/OFF ratio": 1.07}, {"variant": "U8C G9A U10A U11A C13A", "aptazyme ON/OFF ratio": 1.17}, {"variant": "U8C G9A U10A U11A C13U", "aptazyme ON/OFF ratio": 1.28}, {"variant": "U8C G9A U10C U11G C12U C13G", "aptazyme ON/OFF ratio": 1.15}, {"variant": "U8C G9A U10C U11G C12U C13A", "aptazyme ON/OFF ratio": 1.42}, {"variant": "U8C G9A U10C U11G C12U C13U", "aptazyme ON/OFF ratio": 1.51}, {"variant": "U8C G9A U10C U11A C12A", "aptazyme ON/OFF ratio": 1.44}, {"variant": "U8C G9A U10C U11A C12U", "aptazyme ON/OFF ratio": 1.55}, {"variant": "U8C G9A U10C U11A C12G", "aptazyme ON/OFF ratio": 1.37}, {"variant": "U8A U10C C13U", "aptazyme ON/OFF ratio": 1.19}, {"variant": "U8A U10C C13G", "aptazyme ON/OFF ratio": 1.05}, {"variant": "U8A U10C C13A", "aptazyme ON/OFF ratio": 1.05}, {"variant": "U8C G9A U10C U11C", "aptazyme ON/OFF ratio": 1.25}, {"variant": "U8C G9A U10C U11G", "aptazyme ON/OFF ratio": 1.19}, {"variant": "U8C G9A U10C U11A", "aptazyme ON/OFF ratio": 3.76}, {"variant": "U8C G9A U10C U11C C12U C13U", "aptazyme ON/OFF ratio": 1.09}, {"variant": "U8C G9A U10C U11C C12U C13G", "aptazyme ON/OFF ratio": 1.03}, {"variant": "U8C G9A U10C U11C C12U C13A", "aptazyme ON/OFF ratio": 1.1}, {"variant": "U8A U10C C12G C13A", "aptazyme ON/OFF ratio": 1.19}, {"variant": "U8A U10C C12G C13U", "aptazyme ON/OFF ratio": 1.44}, {"variant": "U8A U10C C12G C13G", "aptazyme ON/OFF ratio": 1.45}, {"variant": "U8A U10G U11G C12A C13G", "aptazyme ON/OFF ratio": 1.15}, {"variant": "U8A U10G U11G C12A C13U", "aptazyme ON/OFF ratio": 1.44}, {"variant": "U8A U10G U11G C12A C13A", "aptazyme ON/OFF ratio": 1.18}, {"variant": "U8A U11A C12G C13G", "aptazyme ON/OFF ratio": 1.06}, {"variant": "U8A U11A C12G C13A", "aptazyme ON/OFF ratio": 1.18}, {"variant": "U8A U11A C12G C13U", "aptazyme ON/OFF ratio": 1.17}, {"variant": "U8A U10G U11G C12G", "aptazyme ON/OFF ratio": 1.23}, {"variant": "U8A U10G U11G C12U", "aptazyme ON/OFF ratio": 1.48}, {"variant": "U8A U10G U11G C12A", "aptazyme ON/OFF ratio": 1.11}, {"variant": "U8C G9A U10C C12U C13U", "aptazyme ON/OFF ratio": 1.21}, {"variant": "U8C G9A U10C C12U C13G", "aptazyme ON/OFF ratio": 1.26}, {"variant": "U8C G9A U10C C12U C13A", "aptazyme ON/OFF ratio": 1.29}, {"variant": "U8A U10G C12U C13G", "aptazyme ON/OFF ratio": 1.23}, {"variant": "U8A U10G C12U C13A", "aptazyme ON/OFF ratio": 1.32}, {"variant": "U8A U10G C12U C13U", "aptazyme ON/OFF ratio": 1.36}, {"variant": "U8A U10C U11C C13G", "aptazyme ON/OFF ratio": 1.04}, {"variant": "U8A U10C U11C C13U", "aptazyme ON/OFF ratio": 1.02}, {"variant": "U8A U10C U11C C13A", "aptazyme ON/OFF ratio": 1.01}, {"variant": "U8A U10G C13U", "aptazyme ON/OFF ratio": 1.18}, {"variant": "U8A U10G C13G", "aptazyme ON/OFF ratio": 1.23}, {"variant": "U8A U10G C13A", "aptazyme ON/OFF ratio": 1.52}, {"variant": "U8A U11G C12U C13A", "aptazyme ON/OFF ratio": 1.14}, {"variant": "U8A U11G C12U C13G", "aptazyme ON/OFF ratio": 1.1}, {"variant": "U8A U11G C12U C13U", "aptazyme ON/OFF ratio": 1.11}, {"variant": "U8A U11A C12U", "aptazyme ON/OFF ratio": 1.19}, {"variant": "U8A U11A C12G", "aptazyme ON/OFF ratio": 1.2}, {"variant": "U8A U11A C12A", "aptazyme ON/OFF ratio": 1.07}, {"variant": "U8A U11C C12U C13A", "aptazyme ON/OFF ratio": 1.38}, {"variant": "U8A U11C C12U C13U", "aptazyme ON/OFF ratio": 1.37}]}]}
